The values below come from paper PMC4021431, “Identification of glutathione (GSH)-independent glyoxalase III from Schizosaccharomyces pombe” (BMC Evolutionary Biology, 2014).

What all share (assay): DNPH colorimetric glyoxalase III assay, A540
Substrate in data set [1]: CC(=O)C=O
The data set is classed as biochemical, Saccharomyces cerevisiae. Conditions: GSH-independent, 100 mM Na3PO4 pH 6.8, 45 °C. The source says:
DNPH colorimetric glyoxalase III assay, A540 on ScHsp31

Substrate in data set [2]: CC(=O)C=O
The data set is classed as biochemical, Schizosaccharomyces pombe. Conditions: GSH-independent, 100 mM Na3PO4 pH 6.8, 45 °C. The source says: DNPH colorimetric glyoxalase III assay, A540 on Hsp3101

Substrate in data set [3]: CC(=O)C=O
The data set is classed as biochemical, Schizosaccharomyces pombe. The following applies: GSH-independent, 100 mM Na3PO4 pH 6.8, 45 °C, MG 0.5-3 mM (below Km). The text has this: DNPH colorimetric glyoxalase III assay, A540 on SpDJ-1

Substrate in data set [4]: CC(=O)C=O
The data set is classed as biochemical, Schizosaccharomyces pombe. The following applies: GSH-independent, 100 mM Na3PO4 pH 6.8, 45 °C. The source says:
DNPH colorimetric glyoxalase III assay, A540 on Hsp3102
This is another data set of the same source.

B1: ScHsp31 (Saccharomyces cerevisiae S288C) (protein)
chain: MAPKKVLLALTSYNDVFYSDGAKTGVFVVEALHPFNTFRKEGFEVDFVSETGKFGWDEHSLAKDFLNGQDETDFKNKDSDFNKTLAKIKTPKEVNADDYQIFFASAGHGTLFDYPKAKDLQDIASEIYANGGVVAAVCHGPAIFDGLTDKKTGRPLIEGKSITGFTDVGETILGVDSILKAKNLATVEDVAKKYGAKYLAPVGPWDDYSITDGRLVTGVNPASAHSTAVRSIDALKN
notes: full length (237 aa), C-terminal His6 (pET28a), E. coli BL21(DE3), Ni-NTA
B1: in data set [1], the Km worked out at 1500 µM, the kcat turned out to be 1.25 s⁻¹ and the kcat/Km is 850 M⁻¹ s⁻¹.

B2: Hsp3101 (Schizosaccharomyces pombe 972h-) (protein)
chain: MASEGKVLLVASSYYGPFYPDGMNTGVHFAELLIPYQVFREAGYEVQLTSETGKCKFDDHSIKKSALGEVERDAFDNKDNEFWYALKDIKPADKINYKEFCIMFIAGGHAAMFDLPHATNLQTLAQQIYASNGVLAAVCHGPVMLPFVDDTKSPEGRSVVYGKKVTAFNSTGELVMGVSSALRERNMQDLNSLFREAGAEFVDPPTPMSDFTQVDGRIVTGVNPMSAKSTAEAAIKVSQSLRKT
notes: full length (244 aa), C-terminal His6 (pET28a), E. coli BL21(DE3), Ni-NTA
Take B2: in data set [2], the Michaelis-Menten constant (Km) was 1400 µM, the kcat was determined as 0.518 s⁻¹ and the kcat/Km was found to be 383 M⁻¹ s⁻¹.

B3: SpDJ-1 (Schizosaccharomyces pombe 972h-) (protein)
chain: MVKVCLFVADGTDEIEFSAPWGIFKRAEIPIDSVYVGENKDRLVKMSRDVEMYANRSYKEIPSADDFAKQYDIAIIPGGGLGAKTLSTTPFVQQVVKEFYKKPNKWIGMICAGTLTAKTSGLPNKQITGHPSVRGQLEEGGYKYLDQPVVLEENLITSQGPGTAMLFGLKLLEQVASKDKYNAVYKSLSMP
notes: full length (191 aa), C-terminal His6 (pET28a, NcoI/XhoI), E. coli BL21(DE3), Ni-NTA
For B3, in data set [3], the Km was 10800 µM, the kcat came to 1.43 s⁻¹ and the kcat/Km was determined as 132 M⁻¹ s⁻¹.

B4: SpDJ-1 (Schizosaccharomyces pombe 972h-; H130A) (protein)
chain: MVKVCLFVADGTDEIEFSAPWGIFKRAEIPIDSVYVGENKDRLVKMSRDVEMYANRSYKEIPSADDFAKQYDIAIIPGGGLGAKTLSTTPFVQQVVKEFYKKPNKWIGMICAGTLTAKTSGLPNKQITGAPSVRGQLEEGGYKYLDQPVVLEENLITSQGPGTAMLFGLKLLEQVASKDKYNAVYKSLSMP
notes: as for B3
With B4, in data set [3], the Michaelis constant (Km) worked out at 37300 µM, the kcat was 1.09 s⁻¹ and the kcat/Km is 30 M⁻¹ s⁻¹.

B5: Hsp3102 (Schizosaccharomyces pombe 972h-) (protein)
chain: MSIAKGKNALLVASSYYGPFYPDGKNTGVHFSELLIPYNVFKKAGFNVQFVSENGSYKFDDHSIEESKLGDFERKVFNDKNDDFWTNLNNMKKASDIVGKDYQLLFVAGGHAAMFDLPKATNLQAVAREVFTNGGVLSAVCHGPVLLANVKNPQSVEGKTVVYHKHVTAFNKAGEEKMGVMDELKKRGMKSLNEIFAEAGATFIDPPNPNVNFTQIDGKIVTGVNPQSAKSTAEAAVSAL
notes: full length (240 aa), C-terminal His tag (pESP3), expressed in S. pombe yAS56, Ni-NTA
Turning to B5, in data set [4], the Km is 2700 µM, the kcat came to 0.967 s⁻¹ and the kcat/Km amounted to 350 M⁻¹ s⁻¹.

As usually defined, the Km is the concentration of substrate that gives half-maximal velocity. What is called kcat is the maximal rate divided by the concentration of active sites. What is called kcat/Km is the turnover number divided by the Michaelis constant.
